How the values were obtained:
[1] = target: T1, human 4-1BB (CD137) on Jurkat-hu4-1BB-NFκB-luc2 reporter cells (human, UniProt Q07011 24-255); experiment: cell-based or functional assay
[2] = target: T2, human FAP on NIH/3T3-huFAP clone 19 cells (human, UniProt Q12884 1-760); experiment: flow cytometry on NIH/3T3-huFAP clone 19 cells
T2 construct: NIH/3T3 cells transfected with a plasmid encoding human FAP
Protocol: (§1) Plates were incubated for 30 minutes at 4° C. and washed once with 200 μL 4° C. cold DPBS buffer. […] Cells were washed twice with 200 μL 4° C. DPBS buffer and then resuspended in 50 μL/well DPBS containing 1% Formaldehyde for fixation. The same or the next day cells were resuspended in 100 μL FACS-buffer and acquired using MACSQuant Analyzer 10 (Miltenyi Biotec).

[3] = target: T3, hu4-1BB-SNAP Tb-labeled expressed on transfected Hek cells (human, UniProt Q07011 24-255, Tb (terbium) label on the SNAP tag); experiment: TR-FRET (TagLite) competition against d2-labeled 20H4.9 IgG1 (0.6 nM), after 4 h
T3 construct: SNAP-tag fusion of human 4-1BB; also called Tb hu4-1BB-SNAP

[4] = target: T1, human 4-1BB (CD137) on …; experiment: cell-based or functional assay; set-up: AUC of NFκB-luciferase activation curve, no FAP+ cells / AUC of NFκB-luciferase activation curve, with WM-266-4 cells: unit not given beside the values
[5] = target: T2, human FAP on NIH/3T3-huFAP clone 19 …; experiment: flow cytometry on NIH/3T3-huFAP clone 19 cells; remark: listed apart in the source
Protocol: as §1

[6] = target: T1, human 4-1BB (CD137) on …; experiment: flow cytometry on Jurkat-hu4-1BB-NFκB-luc2 cells
Protocol: Plates were incubated for 30 minutes at 4° C. and washed once with 200 μL 4° C. cold DPBS buffer. […] Cells were washed twice with 200 μL 4° C. DPBS buffer and then resuspended in 50 μL/well DPBS containing 1% Formaldehyde for fixation. The same or the next day cells were resuspended in 100 μL FACS-buffer and acquired using MACSQuant Analyzer X (Miltenyi Biotec).

[7] = target: T1, human 4-1BB (CD137) on …; experiment: cell-based or functional assay; remark: listed apart in the source
[8] = target: T1, human 4-1BB (CD137) on …; experiment: cell-based or functional assay; set-up: AUC of NFκB-luciferase activation curve, no CEA+ cells / AUC of NFκB-luciferase activation curve, with CHO-k1-cynoCEACAM5 clone 8: unit not given beside the values
[9] = target: T4, cynomolgus monkey CEACAM5 on CHO-k1-cynoCEACAM5 clone 8 cells (cynomolgus monkey); experiment: flow cytometry on CHO-k1-cynoCEACAM5 clone 8; set-up: unit not given beside the values
T4 construct: whole, on cells

[10] = target: T1, human 4-1BB (CD137) on …; experiment: cell-based or functional assay; remark: listed apart in the source

B1: 2+1 H2H 4-1BB (20H4.9)/FAP (4B9) P329GLALA IgG1 (bispecific antibody)
heavy 1: QVQLQQWGAGLLKPSETLSLTCAVYGGSFSGYYWSWIRQSPEKGLEWIGEINHGGYVTYNPSLESRVTISVDTSKNQFSLKLSSVTAADTAVYYCARDYGPGNYDWYFDLWGRGTLVTVSSASTKGPSVFPLAPSSKSTSGGTAALGCLVEDYFPEPVTVSWNSGALTSGVHTFPAVLQSSGLYSLSSVVTVPSSSLGTQTYICNVNHKPSNTKVDEKVEPKSCDKTHTCPPCPAPEAAGGPSVFLFPPKPKDTLMISRTPEVTCVVVDVSHEDPEVKFNWYVDGVEVHNAKTKPREEQYNSTYRVVSVLTVLHQDWLNGKEYKCKVSNKALGAPIEKTISKAKGQPREPQVCTLPPSRDELTKNQVSLSCAVKGFYPSDIAVEWESNGQPENNYKTTPPVLDSDGSFFLVSKLTVDKSRWQQGNVFSCSVMHEALHNHYTQKSLSLSP
heavy 2: not shown
light 1: not shown
light 2: EVQLLESGGGLVQPGGSLRLSCAASGFTFSSYAMSWVRQAPGKGLEWVSAIIGSGASTYYADSVKGRFTISRDNSKNTLYLQMNSLRAEDTAVYYCAKGWFGGFNYWGQGTLVTVSSASVAAPSVFIFPPSDEQLKSGTASVVCLLNNFYPREAKVQWKVDNALQSGNSQESVTEQDSKDSTYSLSSTLTLSKADYEKHKVYACEVTHQGLSSPVTKSFNRGEC
notes: Bivalent for 4-1BB, monovalent for FAP (cross-Fab fused head to head); also called 4-1BB (20H.9)×FAP 2+1 H2H; anti-4-1BB (20H4.9)×anti-FAP (4B9) 2+1 H2H huIgG1 P329GLALA
EC50 of NFκB-luciferase activation curve, with NIH/3T3-huFAP clone 19 cells [1]: 0.02 nM | EC50 of NFκB-luciferase activation curve, with WM-266-4 cells [1]: 0.06 nM | EC50 [2]: 1.81 nM | IC50 [3]: 1.9 nM | AUC of NFκB-luciferase activation curve, no FAP+ cells [4]: 715 | AUC of NFκB-luciferase activation curve, with NIH/3T3-huFAP clone 19 cells [4]: 109000 | AUC of NFκB-luciferase activation curve, with WM-266-4 cells [4]: 49400 | AUC [5]: 40200 | EC50 [6]: 0.062 nM

B2: 2+1 H2H 4-1BB (20H4.9)/CEA (MFE23) huIgG1 P329GLALA (bispecific antibody)
heavy 1: QVQLQQWGAGLLKPSETLSLTCAVYGGSFSGYYWSWIRQSPEKGLEWIGEINHGGYVTYNPSLESRVTISVDTSKNQFSLKLSSVTAADTAVYYCARDYGPGNYDWYFDLWGRGTLVTVSSASTKGPSVFPLAPSSKSTSGGTAALGCLVEDYFPEPVTVSWNSGALTSGVHTFPAVLQSSGLYSLSSVVTVPSSSLGTQTYICNVNHKPSNTKVDEKVEPKSCDKTHTCPPCPAPEAAGGPSVFLFPPKPKDTLMISRTPEVTCVVVDVSHEDPEVKFNWYVDGVEVHNAKTKPREEQYNSTYRVVSVLTVLHQDWLNGKEYKCKVSNKALGAPIEKTISKAKGQPREPQVCTLPPSRDELTKNQVSLSCAVKGFYPSDIAVEWESNGQPENNYKTTPPVLDSDGSFFLVSKLTVDKSRWQQGNVFSCSVMHEALHNHYTQKSLSLSP
heavy 2: not shown
light 1: not shown
light 2: QVKLQQSGAELVRSGTSVKLSCTASGFNIKDSYMHWLRQGPEQGLEWIGWIDPENGDTEYAPKFQGKATFTTDTSSNTAYLQLSSLTSEDTAVYYCNEGTPTGPYYFDYWGQGTTVTVSSASVAAPSVFIFPPSDEQLKSGTASVVCLLNNFYPREAKVQWKVDNALQSGNSQESVTEQDSKDSTYSLSSTLTLSKADYEKHKVYACEVTHQGLSSPVTKSFNRGEC
notes: also called 2+1 H2H anti-4-1BB (20H4.9)×anti-CEA (MFE23) huIgG1 P329GLALA
EC50 of NFκB-luciferase activation curve, no CEA+ cells [7]: 0.1 nM | EC50 of NFκB-luciferase activation curve, with CHO-k1-cynoCEACAM5 clone 8 [7]: 0.14 nM | EC50 of NFκB-luciferase activation curve, with CHO-k1-humanCEACAM5 clone 11 [7]: 0.02 nM | EC50 of NFκB-luciferase activation curve, with CHO-k1-humanCEACAM5 clone 12 [7]: 0.02 nM | AUC of NFκB-luciferase activation curve, no CEA+ cells [8]: 774 | AUC of NFκB-luciferase activation curve, with CHO-k1-cynoCEACAM5 clone 8 [8]: 802 | AUC of NFκB-luciferase activation curve, with CHO-k1-humanCEACAM5 clone 11 [8]: 76200 | AUC of NFκB-luciferase activation curve, with CHO-k1-humanCEACAM5 clone 12 [8]: 72300 | AUC [9]: 169

B3: 2+1 H2H 4-1BB (20H4.9)/PD-L1 human IgG1 PGLALA (bispecific antibody)
heavy 1: QVQLQQWGAGLLKPSETLSLTCAVYGGSFSGYYWSWIRQSPEKGLEWIGEINHGGYVTYNPSLESRVTISVDTSKNQFSLKLSSVTAADTAVYYCARDYGPGNYDWYFDLWGRGTLVTVSSASTKGPSVFPLAPSSKSTSGGTAALGCLVEDYFPEPVTVSWNSGALTSGVHTFPAVLQSSGLYSLSSVVTVPSSSLGTQTYICNVNHKPSNTKVDEKVEPKSCDKTHTCPPCPAPEAAGGPSVFLFPPKPKDTLMISRTPEVTCVVVDVSHEDPEVKFNWYVDGVEVHNAKTKPREEQYNSTYRVVSVLTVLHQDWLNGKEYKCKVSNKALGAPIEKTISKAKGQPREPQVCTLPPSRDELTKNQVSLSCAVKGFYPSDIAVEWESNGQPENNYKTTPPVLDSDGSFFLVSKLTVDKSRWQQGNVFSCSVMHEALHNHYTQKSLSLSP
heavy 2: not shown
light 1: not shown
light 2: not shown
EC50 of NFκB-luciferase activation curve, with MKN45-huPD-L1 cells [10]: 0.04 nM
